Measured values taken from the supplement of paper PMC9732359.
± gives the uncertainty stated by the source.

Experiment: protein stability index of a GFP-peptide fusion (yeast GPS) (PSI 1-4); higher = more stable; sorted into four equal gates, so the index is relative within each strain
Settings: doa10∆
How it was run: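 Peptides tiling yeast proteins in 17-residue segments were fused downstream of GFP, with Cherry expressed from the same plasmid. As a pooled library in yeast, mid-log cultures grown in leucine-free medium were sorted into four equal gates by GFP/Cherry fluorescence ratio. Gate plasmids were PCR-amplified and Illumina-sequenced, and barcodes linked reads to strains. Each peptide received a protein stability index equal to the sum of each gate's read frequency times its gate number.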

Row | Sequence | protein stability index
1 | PEEEAAIRRENEWAEDR [SKP1] | 3.09 ± 0.1
2 | PEHLRKIINTHSDMASK [PRP8] | 2.01 ± 0.053
3 | PELAMALRLSMEEEQQR [RPN10] | 3.15 ± 0.14
4 | PELGDKFSSRHGQKGVC [RET1] | 3.26 ± 0.12
5 | PEMSNLYRLSTPLRDEV [PRP8] | 2.76 ± 0.067
6 | PESIRQKKARTILQHLS [PRP8] | 1.21 ± 0.099
7 | PEYGRIIASASYDKTVK [YGL100W/SEH1] | 2.27 ± 0.079
8 | PFDDDEPPLSYEQHIEN [PRP8] | 2.42 ± 0.058
9 | PFHDPEARLFNIWGTVR [ECM29] | 1.33 ± 0.26
10 | PFKVFLDIGLQRTTTGA [RPL5] | 1.63 ± 0.07
11 | PGDGSSYINVTFRAVVF [RPC25] | 1.5 ± 0.083
12 | PGDVLDKDAFIPKLKPA [SNU114] | 1.89 ± 0.094
13 | PGHSLLLSIKLPGKVNT [SNF5] | 2.37 ± 0.059
14 | PGHVNFMDETAVALAAS [SNU114] | 2.4 ± 0.062
15 | PGIMLRQMNLVITLLNN [YCS4] | 1.2 ± 0.06
16 | PGTIVLYAERVQDRGLS [RPS3] | 2.87 ± 0.06
17 | PGTVLILLAGRFRGKRV [RPL6A] | 1.61 ± 0.066
18 | PHIQKMLSILEIFKKGY [POP6] | 2.42 ± 0.11
19 | PIFDYIHIDALELAGMD [SIR3] | 1.63 ± 0.053
20 | PIRINSTEEIEYIELEY [YMR129W/POM152] | 2.45 ± 0.095
21 | PKAVVDHINGSGKRKPT [GAL11] | 2.25 ± 0.076
22 | PKDYIKKLLEVHDIFSK [CDC53] | 1.46 ± 0.042
23 | PKFFLGEENRVRFIGDS [QCR2] | 3.17 ± 0.1
24 | PKLKEGALHFVQQSEKL [YIL149C/MLP2] | 2.58 ± 0.064
25 | PKLKRIGLVKCTQMTDE [GRR1] | 2.95 ± 0.073
26 | PKMGVSSSSLECATCHG [RPO31] | 2.97 ± 0.085

Row | Sequence | protein stability index
27 | PKNFGIGQAVQPKRNLS [RPL8A] | 2.74 ± 0.064
28 | PKRKRRLPVSEDTNTKP [YOR098C/NUP1] | 3.16 ± 0.11
29 | PKSKSLPNEMSQNDGFV [RPO31] | 3 ± 0.2
30 | PLGVILTFVSVDEELGP [SCL1] | 1.72 ± 0.039
31 | PLHLIFAQPVADIENST [SSN2] | 2.67 ± 0.078
32 | PLILTPPQLANQQQPPQ [SNF11] | 1.53 ± 0.066
33 | PLIMATCGSKGSTLNVS [RPO31] | 2.84 ± 0.12
34 | PLNKPLLTEELAKSGST [TAF14] | 2.25 ± 0.068
35 | PLPICHANSVVALTGLL [YML031W/NDC1] | 3.13 ± 0.12
36 | PLQNIHVRKVKLLKQPK [RPS1A] | 2.69 ± 0.075
37 | PLQSMDIEQLEYSRDCF [RPB3] | 3.16 ± 0.074
38 | PLSDLKKRSQAKMNAKT [RPC82] | 3.21 ± 0.08
39 | PLVAHLGLYVGVDDQIL [YJL039C/NUP192] | 2.42 ± 0.074
40 | PMLMANNDVFTIGPYRA [SSN3] | 3.04 ± 0.07
41 | PNALKPLSESLRLVDDD [RRP6] | 3.15 ± 0.091
42 | PNDSNDEKVTILVDSLT [SWI1] | 2.67 ± 0.057
43 | PNFTGIDKLMLSPSDQF [SSN2] | 1.39 ± 0.08
44 | PNGEGSKTWETYEMRIH [RPS20] | 3.09 ± 0.091
45 | PNIVEIDLDNDEDDDED [DLS1] | 3.17 ± 0.084
46 | PNSGTATTGGFGANQAT [YGR119C/NUP57] | 2.12 ± 0.084
47 | PNTSDNNNNSNNHNMRN [SWI1] | 3.12 ± 0.053
48 | PPGTGKTLCARAVANRT [RPT1] | 1.26 ± 0.1
49 | PPGYEIEELDNPMVPSS [PRP8] | 2.42 ± 0.1
50 | PPQQTYHFPIFNKYADP [RPN4] | 2.52 ± 0.046
51 | PPSKHSTLTLSDSEDSD [ESC2] | 3.01 ± 0.15
52 | PQGFSSVERGRKRAHSL [REC8] | 3.38 ± 0.11

Row | Sequence | protein stability index
53 | PQPLFMEDPPSTVSGEL [YMR153W/NUP53] | 3.38 ± 0.2
54 | PQQAQMQQAQFQAQQAQ [SNF2] | 2.94 ± 0.062
55 | PQRLTVLRLATNKGPLA [MCD1] | 2.78 ± 0.099
56 | PQTTQMFQSQSQLQPQP [YDL088C/ASM4] | 2.7 ± 0.052
57 | PQYQYQRRYVIKEKVQF [ITC1] | 1.56 ± 0.069
58 | PRIQRADPVALYLGLKR [RPB5] | 1.82 ± 0.11
59 | PRLEKLINEILLKSNDP [RGR1] | 1.68 ± 0.059
60 | PRMIELMEFLCVVSTDS [ECM29] | 2.04 ± 0.064
61 | PRPSYSSRPNVNTTRRF [YMR129W/POM152] | 2.89 ± 0.099
62 | PRRFGKGSRQCRVCSSH [RPS29B] | 2.96 ± 0.061
63 | PSANNSSSIKSTGPTGA [RRP4] | 3.32 ± 0.038
64 | PSCVYNLIGVITHQGAN [UBP6] | 2.64 ± 0.14
65 | PSFMLKHHQLFYMLNAG [RPN1] | 1.33 ± 0.099
66 | PSKKLKTEDGFVIPALP [RPC82] | 3.08 ± 0.13
67 | PSLELSAEYLQMSLEAN [YJR042W/NUP85] | 1.78 ± 0.087
68 | PSLIQEEEEDTTTTANI [NUT1] | 3.04 ± 0.11
69 | PSLKAHFTEIKLNKVDK [SIR3] | 2.31 ± 0.061
70 | PSLKFKPKAVARKSKEE [RPC53] | 2.82 ± 0.12
71 | PSMKKIKIEPSADDDVN [SIR3] | 1.95 ± 0.077
72 | PSRIFYKALRGMVSHKT [RPL16A] | 2.32 ± 0.1
73 | PSTKVASSAVMNRRKIA [YLR335W/NUP2] | 1.41 ± 0.071
74 | PSVGVKTMKTFVIHIQE [RPB5] | 2.83 ± 0.087
75 | PSVNDFVIGVIIGTFSD [RRP40] | 1.64 ± 0.06
76 | PTDSSKILQKRSISKEL [SIR3] | 2.76 ± 0.066
77 | PTLAGMAQRTLKNKYES [FAS2] | 2.76 ± 0.031
78 | PTLQVGDLVYARVCTAE [RRP40] | 1.5 ± 0.075

Row | Sequence | protein stability index
79 | PTPAIIKPKPLWSGKQI [RPO21] | 2 ± 0.11
80 | PTPVVTISEKEQDILDL [SSN2] | 2.76 ± 0.1
81 | PTRMVRVAKGSGTSVFE [SRP54] | 2.94 ± 0.29
82 | PTSAQKSAVSHAPAYHR [IRR1] | 2.81 ± 0.14
83 | PVAKWFVKFITYLTQEI [SIN4] | 2.32 ± 0.048
84 | PVFHKKAKTTKKVVLRL [RPL42A] | 2.95 ± 0.11
85 | PVGACATSVESVDIGVE [FAS2] | 2.92 ± 0.13
86 | PVKVSGTIKKIEQFAMR [POP5] | 2.54 ± 0.089
87 | PVTLAKVIKVLGRTGSR [RPS28A] | 1.96 ± 0.083
88 | PVYATIGVETGSEPLIQ [PRP28] | 2.84 ± 0.066
89 | PWNDDYPFLLSFLGEAK [YML103C/NUP188] | 1.42 ± 0.047
90 | PYDKKKRVVVPQALRVL [RPL16A] | 2.32 ± 0.14
91 | QACGLVKNLSLMSCISV [RPB2] | 1.49 ± 0.073
92 | QAEATEWAEENADNVEW [RPS0A] | 2.18 ± 0.11
93 | QALQMKAMDIPIGRHEE [SWP82] | 2.86 ± 0.22
94 | QAQAQAQAAQAAQAQAQ [GAL11] | 2.84 ± 0.092
95 | QAQAQAQANNNNNGLPQ [GAL11] | 3.04 ± 0.037
96 | QCLRFLKETVIPSLANN [POP6] | 1.49 ± 0.065
97 | QDGGIMGSLINGITLAL [SKI6] | 3.11 ± 0.075
98 | QDGVLLVALSNEPAARL [FAS2] | 1.89 ± 0.063
99 | QDKDAIRKQPDDIINND [SIR2] | 2.48 ± 0.089
100 | QDKIELSEEETLLVIRR [SNF2] | 2.38 ± 0.11
101 | QDRDRFFLRDTLLWNKN [SNF5] | 2.99 ± 0.056
102 | QDRHVIFLAERRILPKP [RPS7A] | 2.53 ± 0.23
